Reference: US20160200782A1 (MOERAE MATRIX, published 2016)

Legend:
Test in all cases: cell-based or functional assay
Flt4(h) = Flt4(h) (human, UniProt P35916 800-1363, limits assumed)
GRK6(h) = GRK6(h) (human, UniProt P43250 1-576, limits assumed)
LKB1(h) = target: T1, LKB1(h) (human, UniProt Q15831 1-433, limits assumed)
T1 sequence (looked up): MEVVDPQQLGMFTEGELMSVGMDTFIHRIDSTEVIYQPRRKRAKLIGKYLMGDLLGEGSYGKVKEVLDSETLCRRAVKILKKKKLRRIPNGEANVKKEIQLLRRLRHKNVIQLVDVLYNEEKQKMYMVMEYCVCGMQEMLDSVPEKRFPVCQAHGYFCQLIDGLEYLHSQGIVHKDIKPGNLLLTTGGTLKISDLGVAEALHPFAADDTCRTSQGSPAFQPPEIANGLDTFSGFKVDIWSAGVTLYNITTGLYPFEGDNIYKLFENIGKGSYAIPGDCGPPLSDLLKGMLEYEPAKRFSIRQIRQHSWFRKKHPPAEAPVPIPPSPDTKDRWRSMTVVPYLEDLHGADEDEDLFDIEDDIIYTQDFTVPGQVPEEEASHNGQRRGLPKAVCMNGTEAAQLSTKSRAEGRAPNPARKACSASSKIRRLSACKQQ

LOK(h) = LOK(h) (human, UniProt O94804 1-348, limits assumed)
Sequence of LOK(h) (O94804 1-348 limits assumed): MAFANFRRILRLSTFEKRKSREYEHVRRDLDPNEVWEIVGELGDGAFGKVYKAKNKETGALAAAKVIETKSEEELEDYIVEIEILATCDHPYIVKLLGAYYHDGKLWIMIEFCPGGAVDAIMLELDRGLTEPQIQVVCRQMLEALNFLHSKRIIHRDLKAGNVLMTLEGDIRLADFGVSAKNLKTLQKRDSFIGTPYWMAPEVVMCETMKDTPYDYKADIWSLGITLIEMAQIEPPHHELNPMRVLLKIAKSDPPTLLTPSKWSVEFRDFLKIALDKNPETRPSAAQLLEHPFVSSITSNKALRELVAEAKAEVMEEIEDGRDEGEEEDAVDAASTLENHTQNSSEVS

MAPK2(h) = MAPK2(h) (human, UniProt P28482 1-360)
Sequence of MAPK2(h) (P28482 whole entry): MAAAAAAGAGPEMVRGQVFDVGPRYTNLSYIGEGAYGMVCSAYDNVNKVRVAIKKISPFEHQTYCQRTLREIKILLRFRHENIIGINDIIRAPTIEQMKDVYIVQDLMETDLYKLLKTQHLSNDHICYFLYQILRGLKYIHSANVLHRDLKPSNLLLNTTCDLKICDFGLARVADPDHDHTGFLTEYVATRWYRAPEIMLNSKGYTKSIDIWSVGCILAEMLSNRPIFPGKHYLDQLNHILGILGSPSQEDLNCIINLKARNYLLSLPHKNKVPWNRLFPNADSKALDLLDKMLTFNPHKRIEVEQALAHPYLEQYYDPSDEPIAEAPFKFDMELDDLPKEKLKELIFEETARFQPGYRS

MAPKAP-K3(h) = MAPKAP-K3(h) (human, UniProt Q16644 1-382, limits assumed)
Sequence of MAPKAP-K3(h) (Q16644 whole entry): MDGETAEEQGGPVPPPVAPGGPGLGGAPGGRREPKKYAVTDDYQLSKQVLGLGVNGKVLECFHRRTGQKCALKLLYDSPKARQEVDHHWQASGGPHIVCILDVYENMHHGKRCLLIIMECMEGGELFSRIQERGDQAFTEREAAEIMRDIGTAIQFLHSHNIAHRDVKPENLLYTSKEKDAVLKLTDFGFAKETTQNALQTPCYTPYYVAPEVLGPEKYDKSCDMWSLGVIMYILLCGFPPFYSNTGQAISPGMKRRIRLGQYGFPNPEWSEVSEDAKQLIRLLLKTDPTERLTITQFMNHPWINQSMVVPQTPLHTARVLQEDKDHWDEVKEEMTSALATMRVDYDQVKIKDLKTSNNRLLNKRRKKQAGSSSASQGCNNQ

MINK(h) = MINK(h) (human, UniProt Q8N4C8 1-320, limits assumed)
Sequence of MINK(h) (Q8N4C8 1-320 limits assumed): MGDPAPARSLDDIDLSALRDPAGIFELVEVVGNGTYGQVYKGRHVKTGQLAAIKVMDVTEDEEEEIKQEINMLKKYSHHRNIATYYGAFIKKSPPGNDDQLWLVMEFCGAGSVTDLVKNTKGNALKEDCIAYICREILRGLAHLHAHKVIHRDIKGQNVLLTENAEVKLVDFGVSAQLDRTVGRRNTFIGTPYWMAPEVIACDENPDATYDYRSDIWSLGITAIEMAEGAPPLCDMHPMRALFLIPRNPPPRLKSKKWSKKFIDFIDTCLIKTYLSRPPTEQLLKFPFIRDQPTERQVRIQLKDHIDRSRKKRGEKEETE

MRCKβ(h) = target: T2, MRCKβ(h) (human, UniProt Q9Y5S2 1-473, limits assumed)
T2 sequence (looked up): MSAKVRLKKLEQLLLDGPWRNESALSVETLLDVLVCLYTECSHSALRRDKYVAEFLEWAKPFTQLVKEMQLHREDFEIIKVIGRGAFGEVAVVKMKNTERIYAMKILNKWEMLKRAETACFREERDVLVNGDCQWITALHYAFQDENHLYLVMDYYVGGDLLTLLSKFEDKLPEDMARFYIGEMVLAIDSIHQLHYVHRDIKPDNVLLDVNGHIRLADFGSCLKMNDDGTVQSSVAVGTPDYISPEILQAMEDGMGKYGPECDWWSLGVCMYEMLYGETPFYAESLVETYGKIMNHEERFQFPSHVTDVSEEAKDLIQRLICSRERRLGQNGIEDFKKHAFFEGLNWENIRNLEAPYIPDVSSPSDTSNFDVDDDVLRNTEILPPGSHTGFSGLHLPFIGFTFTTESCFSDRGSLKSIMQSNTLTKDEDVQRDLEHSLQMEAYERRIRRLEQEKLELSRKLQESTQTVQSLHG

PKCα(h) = PKCα(h) (human, UniProt P17252 1-672)
Snk(h) = Snk(h) (human, UniProt Q9NYY3 1-685, limits assumed)
Sequence of Snk(h) (Q9NYY3 whole entry): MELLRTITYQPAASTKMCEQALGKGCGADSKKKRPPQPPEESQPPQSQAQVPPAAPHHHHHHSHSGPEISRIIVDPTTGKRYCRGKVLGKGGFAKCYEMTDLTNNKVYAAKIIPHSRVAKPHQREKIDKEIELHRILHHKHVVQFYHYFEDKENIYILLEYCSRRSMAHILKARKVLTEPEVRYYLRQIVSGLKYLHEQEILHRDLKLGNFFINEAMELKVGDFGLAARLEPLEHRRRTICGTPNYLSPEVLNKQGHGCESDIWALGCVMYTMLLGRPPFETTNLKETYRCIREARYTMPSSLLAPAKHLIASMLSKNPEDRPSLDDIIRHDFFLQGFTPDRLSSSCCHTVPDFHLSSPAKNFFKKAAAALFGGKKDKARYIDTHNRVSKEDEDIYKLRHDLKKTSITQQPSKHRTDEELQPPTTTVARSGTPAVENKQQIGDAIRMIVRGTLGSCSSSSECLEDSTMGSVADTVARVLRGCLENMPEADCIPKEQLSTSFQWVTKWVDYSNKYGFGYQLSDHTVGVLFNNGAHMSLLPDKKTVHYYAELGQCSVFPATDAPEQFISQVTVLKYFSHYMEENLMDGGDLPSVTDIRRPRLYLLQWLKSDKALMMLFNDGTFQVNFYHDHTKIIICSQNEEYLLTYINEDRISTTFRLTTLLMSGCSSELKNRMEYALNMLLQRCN

TSSK1(h) = target: T3, TSSK1(h) (human, UniProt Q9BXA7 1-367)
T3 sequence (looked up): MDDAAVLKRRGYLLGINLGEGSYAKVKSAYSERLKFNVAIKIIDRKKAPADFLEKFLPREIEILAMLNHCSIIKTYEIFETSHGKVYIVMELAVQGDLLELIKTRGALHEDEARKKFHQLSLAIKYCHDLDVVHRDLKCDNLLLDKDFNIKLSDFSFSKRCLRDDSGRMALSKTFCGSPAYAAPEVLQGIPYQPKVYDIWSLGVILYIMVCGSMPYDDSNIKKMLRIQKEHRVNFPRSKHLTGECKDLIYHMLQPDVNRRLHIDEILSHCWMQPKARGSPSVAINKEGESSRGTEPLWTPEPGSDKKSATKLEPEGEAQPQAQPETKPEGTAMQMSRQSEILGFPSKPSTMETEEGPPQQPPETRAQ

CDK2/cyclinA(h) = CDK2/cyclinA(h) (human, UniProt P24941 1-298; P20248 1-432)
CK2(h) = CK2(h) (human)
EphB2(h) = target: T4, EphB2(h) (human, UniProt P29323 565-986, limits assumed)
T4 sequence (looked up): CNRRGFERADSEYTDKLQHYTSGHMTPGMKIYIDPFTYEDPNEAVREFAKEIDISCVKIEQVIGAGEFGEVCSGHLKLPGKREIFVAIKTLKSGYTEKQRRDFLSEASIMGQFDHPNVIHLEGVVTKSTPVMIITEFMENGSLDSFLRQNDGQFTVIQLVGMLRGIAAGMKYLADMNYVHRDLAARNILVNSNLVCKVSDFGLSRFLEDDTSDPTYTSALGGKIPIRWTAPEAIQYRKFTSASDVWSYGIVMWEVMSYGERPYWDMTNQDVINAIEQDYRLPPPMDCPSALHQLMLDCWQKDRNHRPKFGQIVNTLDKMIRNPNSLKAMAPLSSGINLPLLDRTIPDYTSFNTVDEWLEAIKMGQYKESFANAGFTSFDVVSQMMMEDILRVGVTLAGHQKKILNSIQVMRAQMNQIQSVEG
Note: test concentration or dose not given here.

Sequence of GRK6(h) (P43250 whole entry): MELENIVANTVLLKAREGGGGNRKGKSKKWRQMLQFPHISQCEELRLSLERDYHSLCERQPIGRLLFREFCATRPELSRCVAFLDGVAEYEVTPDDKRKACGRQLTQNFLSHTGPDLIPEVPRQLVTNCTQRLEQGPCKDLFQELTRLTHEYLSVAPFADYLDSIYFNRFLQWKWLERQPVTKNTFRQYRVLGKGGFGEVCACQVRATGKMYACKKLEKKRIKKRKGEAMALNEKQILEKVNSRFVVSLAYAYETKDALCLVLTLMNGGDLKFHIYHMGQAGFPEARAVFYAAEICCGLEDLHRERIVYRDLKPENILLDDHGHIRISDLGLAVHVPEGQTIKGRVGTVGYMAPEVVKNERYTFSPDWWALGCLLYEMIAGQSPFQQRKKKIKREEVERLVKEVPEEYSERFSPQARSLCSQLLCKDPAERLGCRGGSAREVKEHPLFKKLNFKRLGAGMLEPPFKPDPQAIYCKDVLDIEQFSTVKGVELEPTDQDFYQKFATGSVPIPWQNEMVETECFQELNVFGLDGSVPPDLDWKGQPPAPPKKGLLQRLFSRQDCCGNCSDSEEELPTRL
Sequence of Flt4(h) (P35916 800-1363 limits assumed): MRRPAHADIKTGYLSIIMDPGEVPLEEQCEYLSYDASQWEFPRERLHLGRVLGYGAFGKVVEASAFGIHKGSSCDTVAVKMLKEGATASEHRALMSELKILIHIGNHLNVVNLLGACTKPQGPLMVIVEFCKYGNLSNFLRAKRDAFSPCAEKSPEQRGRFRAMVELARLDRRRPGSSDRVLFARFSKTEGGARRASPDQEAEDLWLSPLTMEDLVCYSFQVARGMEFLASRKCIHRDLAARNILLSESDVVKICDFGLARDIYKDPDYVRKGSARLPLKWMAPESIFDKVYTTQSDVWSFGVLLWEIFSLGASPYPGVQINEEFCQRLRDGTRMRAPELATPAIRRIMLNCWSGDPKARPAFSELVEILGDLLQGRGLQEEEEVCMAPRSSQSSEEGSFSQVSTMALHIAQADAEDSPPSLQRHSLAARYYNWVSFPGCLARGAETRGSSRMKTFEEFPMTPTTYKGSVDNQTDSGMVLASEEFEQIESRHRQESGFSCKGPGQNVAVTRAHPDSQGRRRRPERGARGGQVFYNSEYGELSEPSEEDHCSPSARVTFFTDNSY

Binder | % activity (Flt4(h)) | % activity (GRK6(h)) | % activity (LKB1(h)) | % activity (LOK(h)) | % activity (MAPK2(h)) | % activity (MAPKAP-K3(h)) | % activity (MINK(h)) | % activity (MRCKβ(h)) | % activity (PKCα(h)) | % activity (Snk(h)) | % activity (TSSK1(h)) | % activity (CDK2/cyclinA(h)) | % activity (CK2(h)) | % activity (EphB2(h))
FAKLAARLYRKALARQLGVAA [MMI-0300] | 83% | 147% | 101% | 37% | 98% | 3% | 48% | 83% | 89% | 114% | 79% | 86% | 90% | 18%
KAFAKLAARLYRKALARQLGVAA [MMI-0400] | 89% | 141% | 89% | 18% | 93% | 7% | 52% | 71% | 86% | 131% | 79% | 92% | 101% | 22%
